{"source": "patent US5336488A", "about": "“Method of treating or preventing mastitis in animals with involuting mammary glands by administering recombinant cytokines” (American Cyanamid Company, priority 1992, dated 1994)", "molecules": {"B1": {"name": "recombinant bovine interleukin-2 (protein, UniProt P05016 21-155, looked up)", "Interleukin-2": "APTSSSTGNTMKEVKSLLLDLQLLLEKVKNPENLKLSRMHTFDFYVPKVNATELKHLKCLLEELKLLEEVLNLAPSKNLNPREIKDSMDNIKRIVLELQGSETRFTCEYDDATVNAVEFLNKWITFCQSIYSTMT", "notes": "recombinant bovine interleukin-2, obtained from IMMUNEX Corp. Seattle, WA"}}, "assay": "Milk production in lactations immediately following dry cow therapy", "format": "in vivo, bovine (dairy cows)", "settings": "FIG. 6", "description": "FIG. 6: Milk Production Early in Lactation Before and After Intramammary Infusion of r-BoIL-2 as a Dry Cow Therapy\nMean milk production in kilograms; (S.D.) is shown for 4 cows for the first six days after the initiation of lactation for the lactation immediately prior to treatment and immediately following treatment. Production after r-BoIL-2 treatment or for the same time period for the lactation prior to treatment is monitored. Total dose of r-BoIL-2 received by each treated cow is 2 mg. Three cows are completing their second lactation and one is completing its third lactation at the time of r-BoIL-2 therapy. Post-treatment production from initiation of the third or fourth lactation is compared to the production for the first 6 days after initiation of the second or third lactation (pre-treatment) respectively of the same animals .\nThe effects of r-BoIL-2 on possible milk production after dry-cow therapy are also evaluated. Milk production for three dairy cows for the first five days of the lactation cycle (second or third lactation) prior to r-BoIL-2 treatment is compared to the milk production for the first five days of the lactation cycle (third or fourth lactation) immediately following r-BoIL-2 treatment, FIG. 6."}
{"molecule": "B1", "values": [{"measurement": "improvement in milk production at the following lactation", "setting": "first five days of lactation vs prior lactation", "value": 80, "unit": "%"}, {"measurement": "inhibition of milk production at the following lactation", "setting": "first five days of lactation", "value": "No inhibition of milk production"}]}
